Substitutions are numbered along the chain they refer to. Each block holds one binder with its values, some of them ahead of it.
Columns and labels:
[1] = molecular target: recombinant mouse ATX beta isoform (R&D Systems, Cat No. 6187-EN-010) (mouse, UniProt Q9R1E6 36-862); assay: cell-based or functional assay
[2] = molecular target: T1, recombinant human ATX beta isoform with N-terminal purification tag (human, UniProt Q13822 49-863); assay: SPR Biacore 3000, His-ATX beta captured on anti-Penta-His, mAb as analyte, bivalent analyte model
Procedure: (§1) Affinity measurements using surface plasmon resonance (SPR) were performed using a Biacore 3000 optical biosensor (Biacore) for ATXB3, ATXB6, ATXB8, ATXB9, ATXB13, and ATXB14. A biosensor surface was prepared by coupling anti-Penta-His antibody (Qiagen, Cat No. 34660) to the carboxymethylated dextran surface of a CM-5 chip (Biacore, Cat No. BR-1000-14) using the manufacturer instructions for amine-coupling chemistry. Approximately 15,000 RU (response units) of anti-Penta-His antibody were immobilized in each of four flow cells. The kinetic experiments were performed at 25° C. in running buffer (PBS+0.01% P20+100 ug/ml BSA). Serial dilutions of anti-ATX mAbs (ATXB3, B6, B8, B9, B13, B14) from 900 nM to 0.412 nM were prepared in running buffer. About 80 RU of human ATX beta-His tagged proteins were captured on flow cell 2 of the sensor chip. Flow cell 1 was used as reference surface. Capture of ATX was followed by five minutes injection (association phase) of anti-ATX mAbs at 50 uL/min, followed by 15 minutes of buffer flow (dissociation phase). The chip surface was regenerated by 15 seconds injection of 100 mM H₃PO₄ (Sigma, Cat No. 7961) at 50 uL/min. The collected data were processed using BIAevaluation software, version 3.2 (Biacore). First, double reference subtraction of the data was performed by subtracting the curves generated by buffer injection from the reference-subtracted curves for analyte injections. Then kinetic analysis of the data was performed using the Bivalent Analyte binding model with global fitting. Kd1 (Kₒₙ) was calculated as intrinsic KD with minimum avidity. The result for each mAb was reported in the format of Ka1 (On-rate, Kₒₙ), Kd1 (Off-rate, Koff) and KD1 (Equilibrium dissociation constant). Affinity measurements for ATXB18 were performed on a Proteon XPR36 system (Bio-Rad), using a protocol similar to the one used on the Biacore platform.
The five mAbs with the lowest IC50 values in the inhibition assays as well as ATXB3, a non-neutralizing antibody, were tested for their affinity to the human ATX-beta isoform, as measured by surface plasmon resonance. Due to nonspecific binding of the ATX antigen to the chip surface, these experiments had to be conducted in the reverse format, with ATX immobilized on the chip surface (ligand) and our antibodies in solution (analyte).

[3] = molecular target: T1, recombinant human ATX beta isoform with …; assay: cell-based or functional assay
[4] = molecular target: T1, recombinant human ATX beta isoform with …; assay: SPR ProteOn XPR36, protocol similar to the Biacore one, bivalent analyte model
Procedure: as §1, with “Affinity measurements for ATXB18 were performed on a Proteon XPR36 system (Bio-Rad), using a protocol similar to the one used on the Biacore platform.” left out
The five mAbs with the lowest IC50 values in the inhibition assays as well as ATXB3, a non-neutralizing antibody, were tested for their affinity to the human ATX-beta isoform, as measured by surface plasmon resonance. […]

[5] = molecular target: T1, recombinant human ATX beta isoform with …; assay: Fab-His ELISA
Procedure: (§2) Fabs were captured on black MaxiSorp plates (Nunc, Cat. No. 437111) coated with 1 μg/ml sheep anti-human Fd (CH1) antibody (The Binding Site, Cat. No. PC075). Plates were washed and biotinylated human ATX was added to the captured Fabs at 5 nM. Incubation was carried out for 1 hour at room temperature with gentle shaking. Plates were washed, SA-HRP (Invitrogen, Cat. No. 43-4323) was added and chemiluminescent detection carried out.
(§3) Clones with binding above background were sequenced and unique clones identified. […] These clones were identified with binding signal to human ATX at least 6-fold above the background. Table 3 lists the identifier for VH and VL (Peptide ID) and the combination of both (Fab ID) sorted by the Fab ELISA binding data.

[6] = molecular target: T1, recombinant human ATX beta isoform with …; assay: ELISA, Fab-His captured by anti-Fd, 5 nM biotinylated human ATX beta
Procedure: as §2, §3

IC50, inhibition of LPC hydrolysis by mouse ATX, coupled choline oxidation (Amplex Red) assay [1]: 0.3 nM
Kd [2]: 0.329 nM
koff [2]: 0.000292 s⁻¹
kon [2]: 444000 M⁻¹ s⁻¹
IC50, inhibition of LPC hydrolysis by human ATX beta (1.5 nM), coupled choline oxidation (Amplex Red) assay [3]: 1 nM
B1: mAb ATXB6 (antibody, V domains shown)
VH: QVQLVQSGAEVKKPGSSVKVSCKASGGTFSSYAISWVRQAPGQGLEWMGGIIPIFGTANYAQKFQGRVTITADESTSTAYMELSSLRSEDTAVYYCARDLYIYGDLDYWGQGTLVTVSS
VL: DIQMTQSPSSLSASVGDRVTITCRASQSIGGWLNWYQQKPGKAPKLLIYTASSLQSGVPSRFSGSGSGTDFTLTISSLQPEDFATYYCQQSYTYPITFGQGTKVEIK
notes: Human IgG1/kappa from Fab F73

Kd [4]: 0.673 nM
koff [4]: 0.000614 s⁻¹
kon [4]: 949000 M⁻¹ s⁻¹
B2: mAb ATXB18 (antibody, V domains shown)
VH: B1 VH with L100A, Y101S, I102T
VL: B1 VL with G30D, T50A, T93S, Y94T, I96L
notes: Human IgG1/kappa from Fab F97

IC50, inhibition of LPC hydrolysis by mouse ATX, coupled choline oxidation (Amplex Red) assay [1]: 217 nM
IC50, inhibition of LPC hydrolysis by human ATX beta (1.5 nM), coupled choline oxidation (Amplex Red) assay [3]: 158 nM
B3: mAb ATXB7 (antibody, V domains shown)
VH: QVQLVQSGAEVKKPGSSVKVSCKASGGTFSSYAISWVRQAPGQGLEWMGGIIPIFGTANYAQKFQGRVTITADESTSTAYMELSSLRSEDTAVYYCARPIGTGYYGFFDYWGQGTLVTVSS
VL: B1 VL with G30A, G31K, T50F, T93S, Y94T, I96L

IC50, inhibition of LPC hydrolysis by mouse ATX, coupled choline oxidation (Amplex Red) assay [1]: 1.5 nM
Kd [2]: 0.369 nM
koff [2]: 0.000583 s⁻¹
kon [2]: 789000 M⁻¹ s⁻¹
IC50, inhibition of LPC hydrolysis by human ATX beta (1.5 nM), coupled choline oxidation (Amplex Red) assay [3]: 0.8 nM
B4: mAb ATXB14 (antibody, V domains shown)
VH: B1 VH with T57N, A58T, L100I, Y101S, I102G
VL: B1 VL with G30D, T50A, T93S, Y94T, I96L
notes: Human IgG1/kappa from Fab F104

IC50, inhibition of LPC hydrolysis by mouse ATX, coupled choline oxidation (Amplex Red) assay [1]: 0.5 nM
Kd [2]: 0.6 nM
koff [2]: 0.000329 s⁻¹
kon [2]: 274000 M⁻¹ s⁻¹
IC50, inhibition of LPC hydrolysis by human ATX beta (1.5 nM), coupled choline oxidation (Amplex Red) assay [3]: 1 nM
B5: mAb ATXB13 (antibody, V domains shown)
VH: B1 VH with L100F, Y101S, I102V, L106F
VL: B1 VL with G30A, G31K, T50A, T93S, Y94T, I96L
notes: Human IgG1/kappa from Fab F143

IC50, inhibition of LPC hydrolysis by mouse ATX, coupled choline oxidation (Amplex Red) assay [1]: 0.8 nM
Kd [2]: 1.77 nM
koff [2]: 0.000883 s⁻¹
kon [2]: 249000 M⁻¹ s⁻¹
IC50, inhibition of LPC hydrolysis by human ATX beta (1.5 nM), coupled choline oxidation (Amplex Red) assay [3]: 0.7 nM
B6: mAb ATXB8 (antibody, V domains shown)
VH: B1 VH with L100S, Y101S, I102A, L106F
VL: B1 VL with G30D, T50A, T93S, Y94T, I96L
notes: Human IgG1/kappa from Fab F96

IC50, inhibition of LPC hydrolysis by mouse ATX, coupled choline oxidation (Amplex Red) assay [1]: 9.3 nM
Kd [2]: 47.8 nM
koff [2]: 0.000322 s⁻¹
kon [2]: 3370 M⁻¹ s⁻¹
IC50, inhibition of LPC hydrolysis by human ATX beta (1.5 nM), coupled choline oxidation (Amplex Red) assay [3]: 14.5 nM
B7: mAb ATXB9 (antibody, V domains shown)
VH: QVQLVQSGAEVKKPGSSVKVSCKASGGTFSSYAISWVRQAPGQGLEWMGGISPYFGNANYAQKFQGRVTITADESTSTAYMELSSLRSEDTAVYYCARYGDFGGNVFTEFDYWGQGTLVTVSS
VL: EIVLTQSPGTLSLSPGERATLSCRASQSVNNSDLAWYQQKPGQAPRLLIYTASSRATGIPDRFSGSGSGTDFTLTISRLEPEDFAVYYCQQATTVPLTFGQGTKVEIK
notes: Human IgG1/kappa from Fab F89

fold above background [5]: ≥ 6 fold
Fab Binding [6]: 5.7e+06 relative chemiluminescence units
B8: Fab F89 (VH H70, VL L82) (Fab, V domains shown)
VH: B7 VH
VL: B7 VL
notes: Soluble Fab-His; converted to mAb B9

fold above background [5]: ≥ 6 fold
Fab Binding [6]: 1.7e+06 relative chemiluminescence units
B9: Fab F85 (VH H58, VL L79) (Fab, V domains shown)
VH: QVQLVQSGAEVKKPGSSVKVSCKASGGTFSSYAISWVRQAPGQGLEWMGGIIPIFGTANYAQKFQGRVTITADESTSTAYMELSSLRSEDTAVYYCARDLYGIDIYYALDYWGQGTLVTVSS
VL: B7 VL with N30S, N31S, D33Y, T51G, A92S, T93N, V95L
notes: Soluble Fab-His

Kd [2]: 0.715 nM
koff [2]: 0.000303 s⁻¹
kon [2]: 212000 M⁻¹ s⁻¹
B10: mAb ATXB3 (antibody, V domains shown)
VH: EVQLVQSGAEVKKPGESLKISCKGSGYSFTSYWIGWVRQMPGKGLEWMGIIYPGDSDTRYSPSFQGQVTISADKSISTAYLQWSSLKASDTAMYYCARPYGTFDYWGQGTLVTVSS
VL: EIVLTQSPATLSLSPGERATLSCRASQSVADSLAWYQQKPGQAPRLLIYKASNRATGIPARFSGSGSGTDFTLTISSLEPEDFAVYYCQQSNGWPRTFGQGTKVEIK
notes: Human IgG1/kappa from Fab F17

fold above background [5]: ≥ 6 fold
Fab Binding [6]: 8.1e+06 relative chemiluminescence units
B11: Fab F40 (VH H32, VL L42) (Fab, V domains shown)
VH: EVQLVQSGGGLVQPGGSLRLSCAASGFTFSSYAMSWVRQAPGKGLEWVSVINSDGSSIYYADSVKGRFTISRDNSKNTLYLQMNSLRAEDTAVYYCAKLEAIDYAWGFDYWGQGTLVTVSS
VL: B10 VL with K50N, N92F, G93H, R96L
notes: Soluble Fab-His; converted to mAb B16; the Fab's H32 may differ in FR1

Source: patent US20150087812A1 (Janssen / Centocor, published 2015)
